For this assay, the target named is gp41 (Q567K/A582T/A532V/I535M/L543Q/K574R/S752F/I756F) of the HIV-1AD8 Tri FPPR Bam Envs with K574R (HIV-1 AD8). The experiment in a line: gp120 shedding from virus particles.

The substance “gp120 (Q114E/K59A) of the HIV-1AD8 Tri FPPR Bam-K59A and Tri FPPR Bam-K59A/K574R Envs (natural protein)” yielded a fold resistance to gp120 shedding (CD4mc+cold) against the Tri Bam Env of 40 times. In the case of “gp120 (Q114E) of the HIV-1AD8 Tri Bam, Tri FPPR Bam and Tri FPPR Bam-K574R Envs (natural protein)”, the fold reduction of gp120 shedding against the Tri FPPR Bam Env was found to be 3.9 fold.

The record behind these values is article PMC11228805.
